For five molecules, color development intensity results are on record in US20210332109A1.

Test [1] deals with the antibody (of the immunochromatographic analysis device used in Test Example 8). Kind of test: competitive inhibition in the immunochromatographic sandwich on VZV gE recombinant protein, P3 added; row 0.5 ng/mL.
The target is the same in test [2]. Kind of test: competitive inhibition in the immunochromatographic sandwich on VZV gE recombinant protein, P3 added; row 5 ng/mL.
Test [3] shares this target. Kind of test: competitive inhibition in the immunochromatographic sandwich on VZV gE recombinant protein, P1 added; row 5 ng/mL.
The target is the same in test [4]. Kind of test: competitive inhibition in the immunochromatographic sandwich on VZV gE recombinant protein, P1 added; row 0.5 ng/mL.
For test [5] the target is unchanged. Kind of test: competitive inhibition in the immunochromatographic sandwich on VZV gE recombinant protein, P2 added; row 0.5 ng/mL.
For test [6] the target is unchanged. Kind of test: competitive inhibition in the immunochromatographic sandwich on VZV gE recombinant protein, P2 added; row 5 ng/mL.
The target of test [7] is VZV gE recombinant protein (CalBioreagents, Inc.) (varicella-zoster virus) (UniProt P09259). Kind of test: immunochromatographic sandwich; row antibody gold-labelled, Antibody 2 on the detection line.
For test [8] the target is unchanged. As to the kind of experiment: immunochromatographic sandwich; row antibody gold-labelled, Antibody 18 on the detection line.
The target is the same in test [9]. As to the kind of experiment: immunochromatographic sandwich; row antibody gold-labelled, Antibody 9 on the detection line.
Test [10] shares this target. Kind of test: immunochromatographic sandwich; row antibody gold-labelled, Antibody 4 on the detection line.
The target is the same in test [11]. As to the kind of experiment: immunochromatographic sandwich; row antibody gold-labelled, Antibody 5 on the detection line.
For test [12] the target is unchanged. Kind of test: immunochromatographic sandwich; row antibody gold-labelled, Antibody 3 on the detection line.
The target in test [13] is the antibody (of the immunochromatographic analysis device used in Test Example 8). As to the kind of experiment: competitive inhibition in the immunochromatographic sandwich on VZV gE recombinant protein, P4 added; row 0.5 ng/mL.
Test [14] shares this target. As to the kind of experiment: competitive inhibition in the immunochromatographic sandwich on VZV gE recombinant protein, P4 added; row 5 ng/mL.

Chain of VZV gE recombinant protein (CalBioreagents, Inc.) (varicella-zoster virus) (P09259 31-538 limits assumed): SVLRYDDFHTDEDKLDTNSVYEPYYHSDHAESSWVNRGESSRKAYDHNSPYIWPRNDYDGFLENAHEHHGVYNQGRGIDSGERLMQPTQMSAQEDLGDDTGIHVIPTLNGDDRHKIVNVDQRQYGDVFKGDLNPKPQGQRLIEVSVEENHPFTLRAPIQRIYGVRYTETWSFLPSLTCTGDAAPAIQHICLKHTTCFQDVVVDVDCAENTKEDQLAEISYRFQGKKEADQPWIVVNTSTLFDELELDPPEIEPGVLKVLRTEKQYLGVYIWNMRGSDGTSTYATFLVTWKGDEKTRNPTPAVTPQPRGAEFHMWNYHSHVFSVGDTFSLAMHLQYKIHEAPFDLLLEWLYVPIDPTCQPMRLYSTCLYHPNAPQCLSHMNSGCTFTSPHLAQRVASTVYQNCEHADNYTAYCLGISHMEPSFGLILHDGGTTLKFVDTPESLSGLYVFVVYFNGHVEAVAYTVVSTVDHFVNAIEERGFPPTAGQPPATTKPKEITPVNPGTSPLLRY

Regarding SSWVNRGESSRKAYDHNSPY, the color development intensity turned out to be 128 mAbs in [1] and 677 mAbs in test [2].

NSVYEPYYHSDHAESSWVNR: the color development intensity in test [3] was 726 mAbs; in test [4], 136 mAbs.

With YYHSDHAESSWVNRGESSR, the color development intensity in [5] was found to be 127 mAbs; in test [6] it was 697 mAbs.

B1: Antibody 9 (antibody, V domains shown)
VH: EVQLEESGPELVKPGASVKIPCKASGYTFTDYNMDWVKQNHGKSLEWIGEINPENGGTIYNQTFKGKATLTVDKSSSTAYMELRSLTSEDTAVYYCARSPWFTYWGQGTLVTVSA
VL: DIVLTQTTASLSMAIGEIVTIRCITSTDIGDDMNWYQQKPGEPPKFLISEGNTLRPGVPSRFSSSGYGTDFVFTVENILSEDVADYYCLQSDNLPHVRLGDKVGNK
Take B1: the color development intensity is 39 in test [7]; 218 in test [8]; 29 in test [9]; 5 in test [10]; 52 in test [11]; 53 in [12].

For the molecule ESSRKAYDHNSPYIWPRNDY, the figures for the color development intensity in test [13] and in test [14] were 149 mAbs and 596 mAbs, respectively.
